We go through one molecule from patent publication US20180236024A1 (STC UNM, published 2018).

The target in one data set is T1, Beclin 1 (UniProt Q14457 1-450).
T1 construct: Flag-tagged overexpressed or endogenous, depending on the experiment; also called Flag-Beclin 1; Flag-Beclin-1
Briefly: co-immunoprecipitation, HEK293T lysates.

Data set [1] concerns the molecule itself. Briefly: co-IP of differently tagged IRGM, HEK293T cells.
In the next data set the target is T2, ATG14L (UniProt Q6ZNE5 1-492).
T2 construct: also called endogenous ATG14
Briefly: co-IP of Flag-IRGM and endogenous ATG14.

For a further data set, the target named is T3, TLR3 (UniProt O15455 24-904, limits assumed).
T3 construct: also called Flag-TLR3 (Addgene Plasmid 13084)
T3 sequence (looked up): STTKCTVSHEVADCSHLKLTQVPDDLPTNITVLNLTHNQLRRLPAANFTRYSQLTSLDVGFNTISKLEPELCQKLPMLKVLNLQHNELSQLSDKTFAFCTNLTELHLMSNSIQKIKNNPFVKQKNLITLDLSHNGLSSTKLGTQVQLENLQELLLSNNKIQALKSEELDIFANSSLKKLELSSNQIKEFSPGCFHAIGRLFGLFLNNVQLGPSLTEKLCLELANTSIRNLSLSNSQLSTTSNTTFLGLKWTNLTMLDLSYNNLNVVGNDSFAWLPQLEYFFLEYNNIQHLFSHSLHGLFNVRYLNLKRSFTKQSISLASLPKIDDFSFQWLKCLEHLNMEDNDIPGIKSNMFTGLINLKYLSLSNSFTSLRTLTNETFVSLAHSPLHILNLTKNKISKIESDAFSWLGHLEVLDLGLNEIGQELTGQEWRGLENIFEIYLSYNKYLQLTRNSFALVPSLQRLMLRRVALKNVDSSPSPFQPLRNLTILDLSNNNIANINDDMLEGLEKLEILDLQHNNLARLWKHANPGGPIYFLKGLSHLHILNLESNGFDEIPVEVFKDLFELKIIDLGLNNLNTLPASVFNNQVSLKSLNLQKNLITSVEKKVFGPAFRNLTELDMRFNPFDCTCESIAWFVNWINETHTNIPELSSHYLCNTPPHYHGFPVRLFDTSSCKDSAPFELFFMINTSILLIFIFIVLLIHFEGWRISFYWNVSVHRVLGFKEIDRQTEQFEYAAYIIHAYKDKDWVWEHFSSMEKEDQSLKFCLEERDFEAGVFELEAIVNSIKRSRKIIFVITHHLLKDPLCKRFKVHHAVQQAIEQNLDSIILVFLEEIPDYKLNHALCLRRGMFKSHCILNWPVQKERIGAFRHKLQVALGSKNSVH
Briefly: co-IP with anti-Flag, GFP-IRGM and Flag-TLR3.

For a further data set, the target named is T4, NOD2 (full length) (UniProt Q9HC29 1-1040).
T4 construct: also called Flag-NOD2; endogenous NOD2
Briefly: co-IP, starved HT29 cells and HEK293T cells.

The target of a further data set is T5, TLR4 (UniProt O00206 24-839, limits assumed).
T5 construct: also called GFP-TLR4; YFP-TLR4 (Addgene Plasmid 13018)
Briefly: co-immunoprecipitation with anti-Flag (Flag-IRGM, tagged TLR4).

The next data set deals with T6, NOD1 (UniProt Q9Y239 1-953).
T6 construct: also called Flag-NOD1
T6 sequence (looked up): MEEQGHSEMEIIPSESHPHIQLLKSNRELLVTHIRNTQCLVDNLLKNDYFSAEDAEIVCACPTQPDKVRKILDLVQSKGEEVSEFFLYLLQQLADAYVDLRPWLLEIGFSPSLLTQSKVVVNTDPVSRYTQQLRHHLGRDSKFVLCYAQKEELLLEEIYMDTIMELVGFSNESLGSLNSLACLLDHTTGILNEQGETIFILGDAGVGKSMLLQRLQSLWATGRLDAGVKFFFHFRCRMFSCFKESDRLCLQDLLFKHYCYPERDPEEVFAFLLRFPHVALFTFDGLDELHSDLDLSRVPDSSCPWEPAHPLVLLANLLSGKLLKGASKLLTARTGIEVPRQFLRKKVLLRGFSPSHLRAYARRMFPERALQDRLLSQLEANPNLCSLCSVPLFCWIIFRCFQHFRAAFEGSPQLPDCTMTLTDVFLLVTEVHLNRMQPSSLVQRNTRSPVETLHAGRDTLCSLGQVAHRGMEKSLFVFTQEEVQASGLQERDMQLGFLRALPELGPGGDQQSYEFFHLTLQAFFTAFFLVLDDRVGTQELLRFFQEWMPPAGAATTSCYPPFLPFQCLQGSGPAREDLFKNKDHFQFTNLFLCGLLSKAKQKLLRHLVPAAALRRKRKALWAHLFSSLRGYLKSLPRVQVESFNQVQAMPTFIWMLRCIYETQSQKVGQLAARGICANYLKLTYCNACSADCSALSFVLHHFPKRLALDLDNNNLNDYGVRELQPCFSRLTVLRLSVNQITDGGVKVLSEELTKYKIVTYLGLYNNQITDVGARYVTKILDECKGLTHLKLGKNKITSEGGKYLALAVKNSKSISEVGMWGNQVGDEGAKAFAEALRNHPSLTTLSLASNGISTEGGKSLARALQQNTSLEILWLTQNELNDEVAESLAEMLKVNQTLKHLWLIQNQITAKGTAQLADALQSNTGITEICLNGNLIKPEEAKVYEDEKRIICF
Briefly: co-IP with anti-GFP, GFP-IRGM and Flag-NOD1.

T5 sequence (O00206 24-839 limits assumed): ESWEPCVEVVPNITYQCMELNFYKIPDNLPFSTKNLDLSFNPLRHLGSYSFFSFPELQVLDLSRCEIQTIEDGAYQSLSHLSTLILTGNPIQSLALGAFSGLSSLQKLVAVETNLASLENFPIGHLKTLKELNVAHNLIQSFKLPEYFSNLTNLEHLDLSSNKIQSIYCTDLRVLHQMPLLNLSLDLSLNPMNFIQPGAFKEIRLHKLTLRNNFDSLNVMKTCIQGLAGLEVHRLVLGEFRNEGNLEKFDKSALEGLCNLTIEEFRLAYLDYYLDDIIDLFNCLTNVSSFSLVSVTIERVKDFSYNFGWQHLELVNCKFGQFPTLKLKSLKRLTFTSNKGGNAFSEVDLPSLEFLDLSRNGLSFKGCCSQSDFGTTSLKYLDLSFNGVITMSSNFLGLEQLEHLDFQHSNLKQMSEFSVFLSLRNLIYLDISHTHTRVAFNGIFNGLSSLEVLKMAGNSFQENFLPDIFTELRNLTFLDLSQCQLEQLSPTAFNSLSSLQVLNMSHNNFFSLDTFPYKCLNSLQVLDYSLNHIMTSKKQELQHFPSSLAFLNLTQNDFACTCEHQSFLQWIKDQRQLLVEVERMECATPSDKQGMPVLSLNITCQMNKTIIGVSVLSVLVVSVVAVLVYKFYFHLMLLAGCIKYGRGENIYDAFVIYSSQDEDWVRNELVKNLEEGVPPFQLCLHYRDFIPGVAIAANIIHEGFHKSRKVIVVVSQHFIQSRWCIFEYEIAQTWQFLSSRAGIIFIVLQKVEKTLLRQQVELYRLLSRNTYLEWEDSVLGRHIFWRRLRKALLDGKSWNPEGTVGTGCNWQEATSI
T1 sequence (Q14457 whole entry): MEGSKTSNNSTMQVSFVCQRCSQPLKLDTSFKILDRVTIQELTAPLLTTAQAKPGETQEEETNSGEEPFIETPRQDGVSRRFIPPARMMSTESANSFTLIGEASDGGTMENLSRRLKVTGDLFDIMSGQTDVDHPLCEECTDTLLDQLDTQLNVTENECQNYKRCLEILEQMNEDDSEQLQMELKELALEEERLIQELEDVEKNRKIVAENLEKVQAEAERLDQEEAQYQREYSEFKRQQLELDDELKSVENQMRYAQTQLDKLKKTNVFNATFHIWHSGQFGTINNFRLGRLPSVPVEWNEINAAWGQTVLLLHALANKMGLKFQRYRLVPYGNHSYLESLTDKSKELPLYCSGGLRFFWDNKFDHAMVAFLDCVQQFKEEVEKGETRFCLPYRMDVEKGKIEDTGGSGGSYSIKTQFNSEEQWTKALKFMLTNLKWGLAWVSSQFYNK
T2 sequence (Q6ZNE5 whole entry): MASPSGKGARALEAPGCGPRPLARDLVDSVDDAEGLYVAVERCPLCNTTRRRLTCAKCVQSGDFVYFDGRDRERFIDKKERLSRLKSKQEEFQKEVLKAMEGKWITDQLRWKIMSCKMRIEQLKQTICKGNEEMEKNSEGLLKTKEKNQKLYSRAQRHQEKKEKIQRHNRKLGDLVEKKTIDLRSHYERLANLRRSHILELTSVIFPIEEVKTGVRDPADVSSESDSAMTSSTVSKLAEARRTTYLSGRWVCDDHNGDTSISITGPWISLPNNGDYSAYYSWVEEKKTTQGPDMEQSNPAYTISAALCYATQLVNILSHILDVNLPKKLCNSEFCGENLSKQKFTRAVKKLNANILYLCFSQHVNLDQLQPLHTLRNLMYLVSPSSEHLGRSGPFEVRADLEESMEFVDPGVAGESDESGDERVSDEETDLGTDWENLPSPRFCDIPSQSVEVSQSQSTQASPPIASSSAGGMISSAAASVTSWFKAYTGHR
T4 sequence (Q9HC29 whole entry): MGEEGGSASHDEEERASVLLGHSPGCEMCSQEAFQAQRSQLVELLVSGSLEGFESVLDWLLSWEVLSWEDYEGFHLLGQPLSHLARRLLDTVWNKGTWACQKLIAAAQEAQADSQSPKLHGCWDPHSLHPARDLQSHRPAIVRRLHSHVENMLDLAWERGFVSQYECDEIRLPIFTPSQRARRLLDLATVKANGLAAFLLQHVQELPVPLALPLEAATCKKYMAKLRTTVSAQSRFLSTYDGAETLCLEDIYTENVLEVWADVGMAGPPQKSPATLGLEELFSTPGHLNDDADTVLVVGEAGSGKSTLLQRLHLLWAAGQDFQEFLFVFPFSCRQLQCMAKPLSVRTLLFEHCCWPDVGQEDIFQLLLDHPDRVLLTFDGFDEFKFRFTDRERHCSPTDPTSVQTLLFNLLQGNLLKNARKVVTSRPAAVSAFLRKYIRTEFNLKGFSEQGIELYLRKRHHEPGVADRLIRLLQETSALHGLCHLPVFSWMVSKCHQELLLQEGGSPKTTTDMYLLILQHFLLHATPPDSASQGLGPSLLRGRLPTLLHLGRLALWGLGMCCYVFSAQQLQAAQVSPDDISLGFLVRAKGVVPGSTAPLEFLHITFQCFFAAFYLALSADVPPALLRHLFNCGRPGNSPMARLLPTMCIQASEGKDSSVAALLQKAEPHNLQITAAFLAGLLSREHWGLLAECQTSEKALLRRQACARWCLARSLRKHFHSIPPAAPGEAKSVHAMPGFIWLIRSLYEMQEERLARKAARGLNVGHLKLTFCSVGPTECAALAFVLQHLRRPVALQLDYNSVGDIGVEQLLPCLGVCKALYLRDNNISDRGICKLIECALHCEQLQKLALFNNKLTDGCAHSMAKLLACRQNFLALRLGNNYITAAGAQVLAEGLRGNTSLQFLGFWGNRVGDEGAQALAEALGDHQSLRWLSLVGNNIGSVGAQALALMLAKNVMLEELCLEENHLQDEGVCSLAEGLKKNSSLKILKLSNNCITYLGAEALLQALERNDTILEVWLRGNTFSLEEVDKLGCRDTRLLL

B1: IRGM (human IRGM, isoform d) (other, UniProt A1A4Y4-4 1-202, looked up)
chain: MEAMNVEKASADGNLPEVISNIKETLKIVSRTPVNITMAGDSGNGMSTFISALRNTGHEGKASPPTELVKATQRCASYFSSHFSNVVLWDLPGTGSATTTLENYLMEMQFNRYDFIMVASAQFSMNHVMLAKTAEDMGKKFYIVWTKLDMDLSTGALPEVQLLQIRENVLENLQKERLACHEKYLKSTPENSTRPRNINLCS
notes: Stood in cell lysates as GFP-, Flag- or V5-tagged protein or as the endogenous protein, depending on the experiment; Isoform d is said to be used in all experiments; also called GFP-IRGM; GFP-IRGMd
Consider B1, for which the binding result with Beclin 1 is “binds”; in data set [1], “binds”; with ATG14L, “binds”; with TLR3 it was “binds”; in the data set with NOD2 (full length) it was “binds”; with TLR4, “no binding”. In addition, the binding result in the data set with NOD1 is reported as “binds”.
